Sequences and labels used below:
B2: His-FlgN (natural protein)
chain: MTRLSEILDQMTTVLNDLKTVMDAEQQQLSVGQINGSQLQRITEEKSSLLATLDYLEQQRRLEQNAQRSANDDIAERWQAITEKTQHLRDLNQHNGWLLEGQIERNQQALEVLKPHQEPTLYGADGQTSVSHRGGKKISI
notes: FlgN of Salmonella enterica serovar Typhimurium; source: E. coli BL21 (DE3) Star, in lysate or purified (Ni-NTA)

The assay “His-FlgN” concerns the target B2. Description: SPR; GST-FliJ or GST-FliJ(Δ13–24) captured through immobilised anti-GST antibody on a CM5 chip; His-FlgN flowed over at 20 µl/min; 10 mM HEPES pH 7.4, 0.15 M NaCl, 3 mM EDTA, 0.005% Surfactant P20; 25 °C; steady-state analysis, 1 to 1 binding model. The following applies: both partners purified.
A further assay concerns the target T1, GST-FliJ (Salmonella enterica serovar Typhimurium, UniProt P0A1K1 1-147).
T1 construct: FliJ, flagellar export protein of Salmonella enterica serovar Typhimurium; also called GST-J; source: Salmonella MMHI0117, over-produced, in lysate
The assay is described as above. Particulars: both partners purified.

B1: GST-FliJ(Δ13–24) (natural protein)
chain: MAQHGALETLKDLGEMRRGCQQAEEQLKMLIDYQNEYRSNLNTDMGNGIASNRWINYQQFIQTLEKAIEQHRLQLTQWTQKVDLALKSWREKKQRLQAWQTLQDRQTAAALLAENRMDQKKMDEFAQRAAMRKPE
notes: FliJ of Salmonella enterica serovar Typhimurium with residues 13-24 deleted; also called GST-J(Δ13–24)
Turning to B1, in the assay with His-FlgN, the Kd came to 7.74 ± 0.12 µM.

For B2, binding with GST-FliJ was put at a Kd of 27.4 ± 13 µM.
